Experiments:
Experiment in all cases: SPR; Biacore 8K; antigen immobilised on CM5 chip by amine coupling at 1 ug/ml (tdTomato) or 5 ug/ml (GST, IgGs) in 10 mM sodium acetate pH 5.5; nanobody injected in single-cycle kinetics at 0.1-10 nM; 20 mM Na-Hepes pH 7.4, 150 mM NaCl, 0.05% Tween 20; Langmuir 1:1 model, RIgG-1 and GIgG-4 fit to a two-step binding model
Design in all cases: kon of step 1 (2-state binding model) / koff of step 1 (2-state binding model) / koff of step 2 (2-state binding model): unit not given here
mouse IgG (mouse) = target: mouse IgG (mouse)
rabbit IgG (rabbit) = target: rabbit IgG (rabbit)
goat IgG (goat) = target: goat IgG (goat)

B1: LaMIgG-8 (VHH)
VHH: QVQLVESGGGLVQAGGSLKLSCATSGFTFSTSVMNWFRQAPGKERDMVAFINPSGSTNYVDSVKGRFTISRDSTKNTVYLQMNSLKPEDTAVYYCQTRLLVDSGWRDYWGQGTQVTVS
A Kd (mouse IgG (mouse)) of 1.2 nM was found for B1 in this work.

B2: LaMIgG-14 (VHH)
VHH: QVQLVESGGGLVQAGGSLRLSCAASGFTFSTSVMNWFRQAPGKEREMVAFINPSGSTHYVDSVKGRFTISRDSAKNTVYLQLNSLKPEDTAVYYCQTRLFVGAGWRDYWGQGTQVTVS
A Kd (mouse IgG (mouse)) of 0.21 nM was found for B2 in this work.

B3: LaMIgG-9 (VHH)
VHH: QVQLVESGGGLVQAGGSLSLSCATSGRTGDLYAMAWFRQAPGAEREFVATVTAIGGATYYADSVKGRFTISASYARNMVYLQMNSLKPEDSAVYYCAASMKRVWPLHRSDEAEYWGQGTQVTVS
A Kd (mouse IgG (mouse)) of 0.6 nM was found for B3 in this work.

B4: LaRIgG-7 (VHH)
VHH: DVQLVESGGGLVQTGGSLRLSCAASGRTFTTYDLAWFRQAPGKERECVAAVSRIGTTYYPDSVKGRFTISTDTAQNTVYLQMNSLKPEDTAVYYCASAKFGSRWIRAKTSEGNYDDWGRGTQVTVS
A Kd (rabbit IgG (rabbit)) of 0.053 nM was found for B4 in this work.

B5: LaGIgG-12 (VHH)
VHH: QVQLVESGGGLVQAGGSLRLSCSASGRTLSTYAMGWFRQAPGKEREFVAVISRSGGSTHYVESVKGRFTIVRDNAKNTVYLQMDSLKPEDTAVYYCAVPKYTDYALSPEDFGSWGQGTQVTVS
A Kd (goat IgG (goat)) of 0.49 nM was found for B5 in this work.

B6: LaRIgG-2 (VHH)
VHH: QVQLVESGGGLVQAGGSLRLSCVASGGTFSDWPKGWFRQAPGKEREFVAAINWNGSGTTYADSVKGRFTISRDNAKNAVYLEMNSLKPEDTAVYSCASTFGGIRSVGTNDYWGRGTQVTVS
A Kd (rabbit IgG (rabbit)) of less than 0.014 nM was found for B6 in this work.

B7: LaMIgG-5 (VHH)
VHH: DVQLVESGGGSVQAGGSLRLSCAASGFIFSKDVMNWFRQAPGKERELVAFINPSGTTHYVDSVKGRFTISRDNVKSTVYLQMNDLKPDDTAVYYCQTRKFVGTTWRDYWGQGTQVTVS
A Kd (mouse IgG (mouse)) of 0.42 nM was found for B7 in this work.

B8: LaRIgG-1 (VHH)
VHH: QVQLAESGGGLVQPGGSLRLSCVVSGGTFGRYDMGWFRQAPGKEREFVAAISREVTTNYGDSVRGRFTISRDNAENTVHLLMNSLKPEDTAVYYCAADDAHRYSGTYYLSQDFRYTYWGQGTQVTVS
A Kd (rabbit IgG (rabbit)) of 0.36 nM, a koff of step 1 (2-state binding model) (rabbit IgG (rabbit)) of 0.0034 and a koff of step 2 (2-state binding model) (rabbit IgG (rabbit)) of 0.00026 were found for B8 in this work. For the same binder, the kon of step 1 (2-state binding model) (rabbit IgG (rabbit)) was 890000 and the kon of step 2 (2-state binding model) (rabbit IgG (rabbit)) was 0.0026 s⁻¹.

B9: LaGIgG-4 (VHH)
VHH: DVQLVESGGGLVQAGGSLRLSCAASGITFSRSTMGWHRQAPGKRRELVASINAVGSTNYVPSVKGRFTISRDNAKNTVTLQMNSLEPEDTGVYYCVSDPYDDPRRYWGPGTQVTVS
A Kd (goat IgG (goat)) of 0.82 nM, a koff of step 1 (2-state binding model) (goat IgG (goat)) of 0.011 and a koff of step 2 (2-state binding model) (goat IgG (goat)) of 0.00033 were found for B9 in this work. It also gave a kon of step 1 (2-state binding model) (goat IgG (goat)) of 2.2e+06 and a kon of step 2 (2-state binding model) (goat IgG (goat)) of 0.0018 s⁻¹.

Source: PMC11401214, “A new generation of nanobody research tools using improved mass spectrometry-based discovery methods” (The Journal of Biological Chemistry, 2024)
